According to patent CN118638216A:

Biological target: 新型冠状病毒SARS-CoV-2和SARS-CoV以及动物来源的SARS-like冠状病毒S1
Test: ELISA, S1 proteins coated at 2 μg/mL, antibody titrated from 10 μg/mL

B1: 全人源广谱抗sarbecovirus和/或新冠突变株的抗体(VSCM8-83) (antibody, V domains shown)
VH: EVQLVEFGGGLVQPGGSLRLSCAASGFAVSSNYMSWVRQAPGKGLEWVSVIYGDGTTYYGDSVKGRFTISRHNSKNTLYLQMNSLRTEDTAVYYCARIVSEAFDLWGQGTMVTVSS
VL: DIQMTQSPSTLSASVGDRVTITCRASQSIGRWLAWYQQKPGKAPKLLIYMASILESGVPSRFSGSGSATEFTLTISSLQPDDFATYYCQQYNGYSQYTFGQGTKLEIKR
**Q.** B1 was tested. Which EC50 did it give?
**A.** The EC50 was 0.0397 to 0.0749 µg/mL.
